Experiment [1] concerns the target T1, NP (ΔNPNTD) NTD (Zaire ebolavirus), P18272.
T1 chain: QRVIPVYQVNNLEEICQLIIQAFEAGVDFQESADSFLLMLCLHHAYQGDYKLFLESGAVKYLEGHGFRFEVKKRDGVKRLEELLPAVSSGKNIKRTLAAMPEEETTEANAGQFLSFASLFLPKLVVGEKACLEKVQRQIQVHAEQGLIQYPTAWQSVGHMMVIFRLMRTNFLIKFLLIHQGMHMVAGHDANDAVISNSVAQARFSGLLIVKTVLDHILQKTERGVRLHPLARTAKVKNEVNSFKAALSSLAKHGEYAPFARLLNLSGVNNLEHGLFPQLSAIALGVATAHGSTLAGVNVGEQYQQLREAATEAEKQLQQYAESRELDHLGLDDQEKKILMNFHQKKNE
The conditions noted are these: modification not given.

For experiment [2], the target named is T1, NP (ΔNPNTD) NTD (Zaire ebolavirus), …. Nature of the experiment: competition. The note with it: modification not given.

As usually defined, the Kd is the concentration at which binding is half-saturated. Higher therefore signals lower affinity. What is called IC50 is the concentration needed to halve the response being measured. In turn, MPGPELSGWISEQLMTGRIPVSDIFCDIE [VP35 NPBP 20-48, Q05127] returned a Kd in experiment [1] of 0.032 µM. This molecule also displayed an IC50 in experiment [2] of 0.262 µM.

Source of the values: article PMC5735849.
